From US20260274958A1

Molecular target: VEGF-Fc (in house made by ImmuneOnco)
Sequence (chain, as listed by the source limits assumed): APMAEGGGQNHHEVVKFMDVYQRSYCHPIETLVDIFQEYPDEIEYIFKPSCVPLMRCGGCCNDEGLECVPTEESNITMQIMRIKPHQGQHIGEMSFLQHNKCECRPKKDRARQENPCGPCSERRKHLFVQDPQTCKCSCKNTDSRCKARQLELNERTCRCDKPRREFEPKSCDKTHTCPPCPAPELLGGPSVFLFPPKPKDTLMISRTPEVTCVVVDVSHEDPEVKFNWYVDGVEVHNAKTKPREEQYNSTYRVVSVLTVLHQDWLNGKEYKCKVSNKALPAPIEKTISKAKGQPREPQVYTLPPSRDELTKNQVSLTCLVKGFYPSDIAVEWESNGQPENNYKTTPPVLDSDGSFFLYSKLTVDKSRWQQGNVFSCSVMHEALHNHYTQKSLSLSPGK

IC50 of inhibition of VEGF-Fc induced CD69 expression (MFI) on Jurkat-CVR cells: 2.38 nM
Substance: VEGFR1D2-Fc (Fc fusion)
